The source of these data is PMC5311907, “ClickIn: a flexible protocol for quantifying mitochondrial uptake of nucleobase derivatives” (Interface Focus, 2017).

The series relates to isolated rat liver mitochondria. The series is described as follows: ClickIn/MPP uptake experiment in isolated rat liver mitochondria (MALDI-TOF quantification of clicked, processed PNA 8). In kind it is in vitro ADME. Here is the method:
Rat liver mitochondria were prepared by differential centrifugation as previously described, and diluted to a 20 mg protein ml^−1 concentration in STE buffer (250 mM sucrose, 5 mM Tris, 1 mM EGTA, pH 7.4) and stored for a maximum of 3 h on ice. Peptide–PNA 6 was dissolved at the indicated concentrations in 100 µl KCl buffer (120 mM KCl, 10 mM HEPES, 1 mM EGTA, 1 mM ADP, 1 mM MgCl2, 1 mM KPi, 0.05% BSA, pH 7.4) supplemented with 10 mM potassium succinate, 4 µg ml^−1 rotenone and 10 µM MitoOct. Where indicated carbonyl cyanide-4-(trifluoromethoxy)phenylhydrazone (FCCP, 500 nM) was added to the buffer. The buffer was warmed for 5 min at 37°C after which the reaction was initiated by addition of 5 µl mitochondria suspension (100 µg protein). The mitochondria were incubated for 1 h at 37°C, after which the reaction was stopped by the addition of 3-phenyl-1,2,4,5-tetrazine (PhTet, 50 µM). The mitochondria were pelleted by centrifugation at 16 000g for 1 min, and supernatant was removed. Next 100 µl 20% acetonitrile solution with 0.1% formic acid, 50 µM PhTet and 0.1 µM internal standard 5 was added to the pellet. The pellet was suspended by three cycles of freezing in solid CO2 (5 min) and sonication in a Grant XB2 ultrasonic bath. The obtained solution was centrifuged at 16 000g for 10 min. The sample was spotted onto an MALDI-plate using the bottom-layer method. Matrix (0.75 µl, 50% acetonitrile, 5 mg ml^−1 α-cyano-4-hydroxycinnamic acid, 10 mM dibasic ammonium citrate, 0.1% TFA) was spotted on the plate and 0.75 µl sample was mixed in. The spot was left to dry at room temperature, after which another layer of 0.75 µl of matrix was added. In total, 20 spectra with 10 shots each were collected per spot, using a minimum intensity of 1000 and a maximum of 10 000 as selection criterion, averages were taken of three spots per experiment. All experiments were performed in triplicate using different mitochondrial preparations and are presented as averages ±s.e.m.
Isolated rat liver mitochondria were incubated with various concentrations of peptide (0.1–10 µM) in import buffer, in the presence of MitoOct, for 1 h at 37°C. As previously described, the reaction was stopped by addition of PhTET and centrifugation. The pellet was extracted (20% acetonitrile, 0.1% formic acid, 50 µM PhTet, 0.1 μM 5) and analysed by MALDI-TOF (figure 3 and electronic supplementary material, S1). […] This is consistent with FCCP not only inhibiting the ClickIn reaction, but also inhibiting the processing of COX8-PNA-click by stopping import of 6. The absence of signal in the presence of FCCP is striking (figure 3 and electronic supplementary material, S1), and enables the qualitative observation of PNA uptake in isolated mitochondria. […] It is interesting to note that, even though the MPP is known to cleave after the 25th residue of the COX8 pre-sequence, we see no evidence of the four amino acids, IHSL, predicted to remain at the N-terminal of our cleaved product. Our previous unpublished results have shown a very minor amount of the PNA product still carrying leucine at the N-terminal but not any of the remaining amino acids. It is likely that these residues are removed by a protease residing in the mitochondrial matrix.

Turning to “COX8-Cys-Ac-GTCA-Lys(N3)-NH2 [compound 6]”, the “formation of product 8 in the presence of FCCP (uncoupled membrane potential)” value (as the uptake experiment, plus FCCP 500 nM, all added concentrations of 6 (0.1–10 µM), 1 h at 37°C, MALDI-TOF) is given as “no product 8 could be observed”. Also, where the note is “isolated rat liver mitochondria (100 µg protein) in 100 µl KCl buffer pH 7.4, 10 mM succinate, 4 µg/ml rotenone, 10 µM MitoOct, 0.1–10 µM 6, 1 h at 37°C, stopped with 50 µM PhTet, pellet extract, MALDI-TOF with 0.1 µM internal standard 5, triplicate, different mitochondrial preparations”, the “formation of clicked PNA (product 8) as measure of mitochondrial matrix import” value is “Significant amounts of clicked PNA were observed in all samples”. Also, the “concentration dependence of the ClickIn/MPP reaction (quantified 8)” value (isolated rat liver mitochondria, 10 µM MitoOct, 1 h at 37°C, MALDI-TOF with internal standard 5, figure 3c, averages ± s.e.m., triplicate) was “typical dose–response curve for concentrations of 6 up to 5 µM”. Further, the “cleaved but not clicked 6 seen in mass spectra” value (isolated rat liver mitochondria, 10 µM MitoOct, 1 h at 37°C, MALDI-TOF, without FCCP, not observed in the presence of FCCP) is “small amounts of cleaved but not clicked 6”. For the setting “isolated rat liver mitochondria, concentrations of 6 higher than 5 µM, inferred from the dose–response curve”, the “toxic effect on the mitochondria” value is reported as “might have a toxic effect on the mitochondria”.
